Experimental data as given in patent US20260055441A1, “A PCR-ELISA ANALOGOUS ANTIBODY-FREE METHOD FOR DETECTING A TARGET NUCLEIC ACID IN A SAMPLE” (UNIVERSITÄT HEIDELBERG, priority 2022, published 2026).
Entries after “also recorded” stand apart in the source; their conditions may differ. Marks after values point to notes of the source that are not given here.

Columns and labels:
[1] = biological target: T1, latent papain P13 (Carica papaya, UniProt P00784); test: Latent papain reactivation assay with thiol activators at 10 μM, rates normalized to 10 μM cysteine (FIG. 18); assay type: biochemical; settings: activator 10 μM, latent papain 1 nM, Z-Phe-Arg-AMC 2 μM; for normalized ratio rate/rate 10 μM cysteine of substrate hydrolysis after reactivation of latent papain: well buffer pH 7, no TCEP
T1 construct: purchased Sigma Aldrich (Munich, Germany); host or cells: Papaya latex (natural source)
T1 sequence (P00784 134-345): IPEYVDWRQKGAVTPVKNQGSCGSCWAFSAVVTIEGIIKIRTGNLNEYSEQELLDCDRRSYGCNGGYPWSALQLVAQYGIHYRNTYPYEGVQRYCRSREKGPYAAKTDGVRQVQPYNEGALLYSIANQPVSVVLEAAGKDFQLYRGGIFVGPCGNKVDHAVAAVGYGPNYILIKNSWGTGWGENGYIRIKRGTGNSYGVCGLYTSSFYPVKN
Protocol: All following described fluorometric assays (Examples 1-3) are based on the reaction of reversibly inactivated papain (latent papain) with an activator containing either sulfur or selenium (with the exception of TCEP). Different latent papain forms, buffer compositions and activators in various concentrations were compared. Papain was hereby transferred in buffer (standard well buffer consisted of 0.1 M phosphate pH 7, 4 mM EDTA, 0.01% Brij35 and if activators contained diselenides, 1 μM TCEP) mixed with activator and substrate inside 96 well plates (without prior washing of the plates). After reactivation, active papain hydrolyses the substrate Z-Phe-Arg-AMC (2 μM) and the resulting fluorescence was tracked every minute for 2 h. The slopes of the corresponding curves were calculated for the linear portion within the first 30 minutes and the resulting reaction rates were directly compared. Resulting reaction rates directly reflect reactivation efficiencies of each activator under each reaction condition. […] After addition of activator a fraction of latent papain is immediately reactivated in rather non-stoichiometric proportions. Complete reactivation can generally only be achieved with great excess of activator. The partial reactivation with smaller activator amounts appears almost instantaneously because the resulting reaction curve show linear progression from the start except for very low activator concentrations. After reactivation, all different latent papain forms result in the same active enzyme. If different latent papain forms show different reaction rates in identical activation assays, the efficiency of reactivation with the applied activator can be deduced. The same applies for reactivation of one latent papain form with different activators or reaction conditions.
Several thiol compounds and cysteine containing peptide activators (see Example 4.1) were compared for their potential to reactivate latent papain. To this end, the thiol compounds and cysteine containing peptide activators were utilized in reactivation assays (see Example 5, 5.2.2.2, fluorometric method 2) of papain P13 (see Example 1, 1.2) with an activator concentration of 10 μM. For thiols not completely soluble in phosphate buffer pH 7 at high concentrations, the 1 mM stock solution was prepared in DMSO, resulting in 1% DMSO in the reaction mixture. In order to normalize the observed reaction rates between assays, a 10 μM cysteine sample was additionally measured in every assay and reaction rates of the examined thiols were divided through the reaction rates produced by the 10 μM cysteine standard. Additionally, a measurement with 1 mM cysteine was performed in order to achieve maximal papain activation and therefore the maximal reaction rate within the confines of the assay. The resulting normalized rates are compared in FIG. 18.
(§1) Different assays of reactivating latent papain in solution were conducted in the course of this work. Various buffer compositions, supplements, 96 well plates, substrates, activators, concentrations as well as different latent papain forms were compared. In order to get an overview of all experiments, a standard method is described in the following and variations of this method are subsequently defined. First, the well buffer was prepared (0.1 M phosphate buffer pH 7, 4 mM EDTA, 0.01% Brij35). A 1 mM TCEP solution was prepared with 3 mM NaOH in 0.1 M Tris-HCl buffer pH 8. Papain substrate (Z-Phe-Arg-AMC or Suc-Leu-Leu-Val-Tyr-AMC) was prepared as a 200 μM solution in water and transferred equally to a PCR strip. Three serial dilutions of the activating agent with well buffer were used in the different experiments and the corresponding pipetting schemes are shown in Table 9. Papain was diluted to 0.1 μM with well buffer and transferred equally to a PCR strip. After preparation of the abovementioned solutions, TCEP (1 mM solution) was added to well buffer to yield a final TCEP concentration of 1.1 μM. […]

[2] = cited from earlier work; for pKa (H2O): published values, source mark b or d legible
[3] = biological target: T2, latent papain (Carica papaya, UniProt P00784); test: Latent papain reactivation with selenium/thiol activators in presence of TCEP, rates normalized to blank (FIG. 22); assay type: biochemical; settings: 50 pM-100 nM activator, latent papain 1 nM, 1 μM TCEP (FIG. 22)
T2 construct: purchased Sigma Aldrich (Munich, Germany); host or cells: Papaya latex (natural source)
T2 sequence (P00784 134-345): T1 sequence (P00784 134-345)
Protocol: To this end, cysteine ethyl ester, DTT, DTBA (9) and SeDTBA (11) were chosen for a direct comparison. […] The resulting reaction rates were normalized against the background activity and the resulting normalized rates are presented in FIG. 22 for the concentration range of 50 pM-100 nM.
Different assays of reactivating latent papain in solution were conducted in the course of this work. Various buffer compositions, supplements, 96 well plates, substrates, activators, concentrations as well as different latent papain forms were compared. In order to get an overview of all experiments, a standard method is described in the following and variations of this method are subsequently defined. First, the well buffer was prepared (0.1 M phosphate buffer pH 7, 4 mM EDTA, 0.01% Brij35). A 1 mM TCEP solution was prepared with 3 mM NaOH in 0.1 M Tris-HCl buffer pH 8. Papain substrate (Z-Phe-Arg-AMC or Suc-Leu-Leu-Val-Tyr-AMC) was prepared as a 200 μM solution in water and transferred equally to a PCR strip. Three serial dilutions of the activating agent with well buffer were used in the different experiments and the corresponding pipetting schemes are shown in Table 9. Papain was diluted to 0.1 μM with well buffer and transferred equally to a PCR strip. […] After mixing, 30 μL of the prepared activator concentrations (see Table 9) were added and mixed. In the last step, 3.8 μL of the substrate solution was added and mixed, to yield a final well composition of 0.1 M phosphate buffer pH 7, 1 nM papain, 2 μM substrate, activator (see Table 9), 4 mM EDTA, 0.01% Brij35 and 1 μM TCEP. For experiments with only one activator concentration of 10 μM, the transferred well buffer for each well was 368.6 μL, followed by 3.8 μL of papain, substrate and activator (1 mM in well buffer) respectively.

[4] = biological target: T3, dU-triazole-PEG3-ULR dimer (21) (not fully specified)
T3 chain: ULR

[5] = biological target: T4, latent papain forms P20-P28 (Carica papaya, UniProt P00784); test: Comparison of reactivation efficiencies of latent papain forms with activator dU-triazole-PEG3-ULR (21) (FIG. 15, 16); assay type: biochemical; settings: for reaction rate of substrate hydrolysis after reactivation (not normalized), in words / normalized rate/rate blank after reactivation, in words: activator dU-triazole-PEG3-ULR (21) 1-15 nM; for reaction rate of substrate hydrolysis after reactivation (not normalized), in words: papain 1 nM (FIG. 15); for normalized rate/rate blank after reactivation, in words: papain 1 nM (FIG. 16)
T4 construct: purchased Sigma Aldrich (Munich, Germany); host or cells: Papaya latex (natural source)
T4 sequence (P00784 134-345): T1 sequence (P00784 134-345)
Protocol: In order to reversibly deactivate commercially purchased papain, reactions with different thiosulfonate derivatives were carried out and different latent papain versions were produced. Papain was first incubated with cysteine to yield complete activated papain which could then be incubated and deactivated with the specific thiosulfonate solutions. A mixture of papain disulfides is otherwise to be expected. An additional step was introduced in this work with the goal of further reduction of residual enzymatic activity. After incubation with either thiosulfonate derivative, papain was thus incubated with equimolar amounts of the more efficient irreversible inhibitor E64 (see Example 5, 5.2.1.2) in order to deactivate possible unmodified papain traces. The excess of small molecules was then separated by Sephadex G25 spin columns. Different thiosulfonates were synthesized (data not shown) and used to produce different latent papain forms, to the authors best knowledge yet unknown to literature (P23, P24 and P26), with their reactivation efficiency directly compared. The four thiosulfonates S-benzyl (1)-, S-propyl (2)-, S-(2-acetic acid) (3)- and S-(2-aminoethyl) (5)-ethanethiosulfonate are shown in FIGS. 6 and 13.
All latent papain forms were synthesized as described (see Example 5, 5.2.1.2) and concentrations of the stock solutions were determined (see Example 5, 5.2.1.3) and are shown in FIG. 14. In favor of allowing for precise comparison of all different papain forms, papain P20-28 were produced and processed simultaneously, whereas production of P28 differed in lack of pre-activation with cysteine and incubation with E64 in order to examine if those two steps are indeed affecting the latent papain quality (P20 vs. P28).
The successfully produced latent papain forms were then utilized in a reactivation assay in accordance with the method of the invention (see Example 5, 5.2.2.2), fluorometric method 1) with the selenocysteine containing activator dU-triazole-PEG3-ULR (21) in concentrations from 1 nM-15 nM. The resulting reaction rates of every papain and every activator concentration are directly compared in FIG. 15.
On second look, it becomes clear that the calculated rates have to be considered in relation to the residual papain activity. Without activator present, the rates of papain differ greatly between the latent derivatives. This must be due solely to their chemical properties and not to a result of remaining active papain after incubation with thiosulfonate, because subsequent incubation with equimolar amounts of E64 inhibitor will inevitably deactivate remaining active papain irreversibly (see Example 5, 5.2.1.2). In order to normalize the presented reaction rates, they were divided through the reaction rate of the corresponding residual activity (blank value) and results are shown in FIG. 16.
as §1

For `O=[N+]([O-])c1ccc(S)nc1` [2-mercapto-5-nitropyridine, 2-Mercapto-5-nitropyridine], the “reaction rate compared to L-cysteine” value ([1]; pH 7) is listed as “less than 15%” and the “pKa of thiol, as discussed in text” value [2] is listed as 7.1.

For `Sc1ccc(Br)cc1` [4-Bromothiophenol], the “pKa (H2O)” value [2] is listed as 6.0^b.

In the case of `COc1ccc(S)cc1` [4-Methoxythiophenol], the “pKa (H2O)” value [2] is given as 6.8^b.

With `O[C@@H](CS)[C@@H](O)CS` [DTT] the “activator efficiency (normalized rate/rate blank), in words” value [3] was “no substantial rate increase”.

For `SCc1ccccc1` [benzyl mercaptan, Benzylmercaptan], the “normalized ratio rate/rate 10 μM cysteine of substrate hydrolysis after reactivation of latent papain” value [1] is given as 1.69 and the “pKa (H2O)” value [2] is given as 9.4^b.

For `O=S(=O)(CCS)CCS` [bis(2-mercaptoethyl) sulfone], the “normalized ratio rate/rate 10 μM cysteine of substrate hydrolysis after reactivation of latent papain” value [1] is listed as 3.17 and the “pKa of thiol, as discussed in text” value [2] is listed as 7.9.

In the case of seleno-dithiobutylamin [SeDTBA (11)], the “activator efficiency (normalized rate/rate blank), in words” value [3] is reported as “second most efficient activator; also recorded: almost twice as high compared to DTBA (9)”.

B1: latent papain P24 (-S-S-CH2-COOH) (protein)
chain: T1 sequence (P00784 134-345)
With B1 the “normalized ratio rate/rate blank of substrate hydrolysis after reactivation of latent papain (1 nM) with activator 1-15 nM” value (from here on “normalized ratio rate/rate blank”) [4] was “featured low normalized rates as seen for P24” and the “reaction rate of Z-Phe-Arg-AMC hydrolysis after reactivation of latent papain (1 nM) with activator 1-15 nM” value [4] was “Papain P24 with its negatively charged residue showed reaction rates close to Papain P20 with the methyl residue”.

B2: P23: latent papain form with positively charged aminoethyl disulfide residue (protein)
chain: T1 sequence (P00784 134-345)
With B2 the “reaction rate of substrate hydrolysis after reactivation (not normalized), in words” value [5] was “by far the most efficiently reactivated latent papain form”.

B3: latent papain P25 (-S-S-(CH2)2-CH3) (protein)
chain: T1 sequence (P00784 134-345)
For B3, the “normalized ratio rate/rate blank” value [4] was “The second aliphatic residue of P25 showed surprisingly low reactivation potential towards the activator”.

B4: P25: latent papain form with propyl disulfide residue (protein)
chain: T1 sequence (P00784 134-345)
In the case of B4, the “normalized rate/rate blank after reactivation, in words” value [5] is reported as “surprisingly low reactivation potential”.

B5: P24: latent papain form with negatively charged acetic acid disulfide residue (protein)
chain: T1 sequence (P00784 134-345)
For B5, the “normalized rate/rate blank after reactivation, in words” value [5] was “low normalized rates”.

B6: P26: latent papain form with benzyl disulfide residue (protein)
chain: T1 sequence (P00784 134-345)
In the case of B6, the “reaction rate of substrate hydrolysis after reactivation (not normalized), in words” value [5] is reported as “greatly reduced rates” and the “normalized rate/rate blank after reactivation, in words” value [5] is reported as “third highest normalized rate values”.

B7: P20: latent papain, methyl mixed disulfide, with cysteine pre-activation and E64 (protein)
chain: T1 sequence (P00784 134-345)
In the case of B7, the “normalized rate/rate blank after reactivation, in words” value [5] is reported as “highest of all papain forms; also recorded: twice as high as P28” and the “residual activity rate compared to P23” value ([5]; without activator (blank), papain 1 nM) is reported as 25%.

B8: latent papain P26 (S-S-CH2-C6H5) (protein)
chain: T1 sequence (P00784 134-345)
For B8, the “normalized ratio rate/rate blank” value [4] was “papain P26 showed the third highest normalized rate values” and the “reaction rate of Z-Phe-Arg-AMC hydrolysis after reactivation of latent papain (1 nM) with activator 1-15 nM” value [4] was “The papain variant P26 with its benzyl residue showed greatly reduced rates when compared to all other variants”.
